Test results reported in patent US20190106501A1 (FRED HUTCHINSON CANCER RESEARCH CENTER, published 2019).

Molecular target: T1, CD20 (human, UniProt P11836 1-297)
T1 sequence (looked up): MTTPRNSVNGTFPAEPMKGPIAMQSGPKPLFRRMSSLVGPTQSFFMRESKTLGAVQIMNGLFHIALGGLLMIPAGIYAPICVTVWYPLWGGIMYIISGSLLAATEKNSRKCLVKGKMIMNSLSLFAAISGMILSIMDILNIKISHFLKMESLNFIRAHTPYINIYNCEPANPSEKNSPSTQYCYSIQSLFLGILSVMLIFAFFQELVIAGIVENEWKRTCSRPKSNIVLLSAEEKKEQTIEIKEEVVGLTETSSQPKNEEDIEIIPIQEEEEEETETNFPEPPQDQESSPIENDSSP
Experiment: cell-based or functional assay

B1: rituximab (antibody, V domains shown)
VH: QVQLQQPGAELVKPGASVKMSCKASGYTFTSYNMHWVKQTPGRGLEWIGAIYPGNGDTSYNQKFKGKATLTADKSSSTAYMQLSSLTSEDSAVYYCARSTYYGGDWYFNVWGAGTTVTVSA
VL: QIVLSQSPAILSASPGEKVTMTCRASSSVSYIHWFQQKPGSSPKPWIYATSNLASGVPVRFSGSGSGTSYSLTISRVEAEDAATYYCQQWTSNPPTFGGGTKLEIK
cell size (forward scatter) of CAR T cells after stimulation with Raji, Daudi or Rec-1 cells pre-incubated with rituximab, relative to no rituximab: > 85% | cell size (forward scatter) of CAR T cells incubated with FL-18 cells at 200 µg/ml rituximab, relative to control: 73% | proliferation (CFSE dilution) of Leu16-28-BB-z-tEGFR CAR T cells with Raji, Daudi, Rec-1, FL-18 targets, rituximab up to 200 µg/ml, relative to no rituximab: > 96%
